Results reported in US20060057696A1, “Sugar chain synthases” (priority 2002, published 2006).
Values belong to the molecule of their own block, whether it stands above or below them.

Assays:
[1] = target: T1, PA-hST8Sia VI (human ST8Sia VI) (Homo sapiens, UniProt P61647, L267F); assay: Sialyltransferase activity of PA-hST8Sia VI toward acceptor substrates; format: biochemical; conditions: incorporation with Fetuin taken as 100, substrate 0.5 mg/ml glycolipids, 1 mg/ml glycoproteins, monosaccharides and oligosaccharides
T1 construct: amino acids 68-398 in the case of human ST8Sia VI; signal peptide of mouse immunoglobulin IgM (N); made in house; host or cells: COS-7 cells, transient expression of pcDSA-hST8Sia VI; protein recovered from medium on IgG-Sepharose
T1 sequence (P61647 68-398 L267F): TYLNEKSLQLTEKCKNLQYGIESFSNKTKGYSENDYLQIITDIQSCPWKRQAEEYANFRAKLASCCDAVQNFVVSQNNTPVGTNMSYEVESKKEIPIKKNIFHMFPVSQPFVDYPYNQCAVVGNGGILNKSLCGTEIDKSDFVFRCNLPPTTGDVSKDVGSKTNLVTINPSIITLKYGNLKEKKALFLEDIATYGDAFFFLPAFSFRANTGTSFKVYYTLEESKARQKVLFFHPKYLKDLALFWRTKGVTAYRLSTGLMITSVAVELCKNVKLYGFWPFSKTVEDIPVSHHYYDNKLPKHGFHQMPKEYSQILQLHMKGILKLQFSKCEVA
Protocol: Using each expression vector and lipofectamine (Invitrogen), transient expression was carried out in COS-7 cells (Kojima, N. et al. (1995) FEBS Lett. 360, 1-4). The proteins of the present invention secreted from the cells into which each expression vector had been introduced were named as PA-mST8Sia VI (mouse) and PA-hST8Sia VI (human). PA-mST8Sia VI and PA-hST8Sia VI were adsorbed to IgG-Sepharose (Amersham Pharmacia Biotech), and were then recovered from medium. Sialyltransferase activity was measured as follows according to the method of Lee et al. (Lee, Y.-C. et al. (1999) J. Biol. Chem. 274, 11958-11967). A reaction solution (10 μl) containing 50 mM MES buffer (pH 6.0), 1 mM MgCl2, 1 mM CaCl2, 0.5% Triton CF-54, 100 μM CMP-[^14C]-NeuAc, a glycoconjugate (which was added at 0.5 mg/ml in the case of glycolipids, and at 1 mg/ml in the case of glycoproteins or oligosaccharides), and a PA-mST8Sia VI or PA-hST8Sia VI suspension, was incubated at 37° C. for 3 to 20 hours. Thereafter, in the case of glycolipids, the reaction product was purified with a C-18 column (Sep-Pak Vac 100 mg; Waters) and the purified product was used as a sample, and in the case of oligosaccharides or glycoproteins, the reaction product was directly used as a sample. Thus, the obtained samples were subjected to analysis. In the case of oligosaccharides or glycolipids, the sample was spotted on a silica gel 60 HPTLC plate (Merck), and was then developed with a developing solvent consisting of ethanol:pyridine:n-butanol:water:acetic acid=100:10:10:30:3 (for oligosaccharides), a developing solvent consisting of 1-propanol:ammonia water:water=6:1:2.5 (for oligosaccharides), or a developing solvent consisting of chloroform:methanol: 0.02% CaCl2=55:45:10 (for glycolipids). In the case of glycoproteins, analysis was carried out by SDS-polyacrylamide gel electrophoresis. The obtained radioactivities were visualized with a BAS2000 radio image analyzer (Fuji Film) and then quantified.

[2] = target: T2, PA-hST6Gal II (human ST6Gal II) (Homo sapiens, UniProt Q96JF0); assay: Sialyltransferase activity of PA-hST6Gal II toward acceptor substrates; format: biochemical; conditions: PA-hST6Gal II; incorporation with Galβ1,4GlcNAc taken as 100; 0.5 mg/ml glycolipids, 1 mg/ml glycoproteins and oligosaccharides
T2 construct: amino acids 33-529 in the case of human ST6Gal II; signal peptide of mouse immunoglobulin IgM (N); made in house; host or cells: COS-7 cells, transient expression of pcDSA-hST6Gal II; protein recovered from medium on IgG-Sepharose
T2 sequence (Q96JF0 33-529): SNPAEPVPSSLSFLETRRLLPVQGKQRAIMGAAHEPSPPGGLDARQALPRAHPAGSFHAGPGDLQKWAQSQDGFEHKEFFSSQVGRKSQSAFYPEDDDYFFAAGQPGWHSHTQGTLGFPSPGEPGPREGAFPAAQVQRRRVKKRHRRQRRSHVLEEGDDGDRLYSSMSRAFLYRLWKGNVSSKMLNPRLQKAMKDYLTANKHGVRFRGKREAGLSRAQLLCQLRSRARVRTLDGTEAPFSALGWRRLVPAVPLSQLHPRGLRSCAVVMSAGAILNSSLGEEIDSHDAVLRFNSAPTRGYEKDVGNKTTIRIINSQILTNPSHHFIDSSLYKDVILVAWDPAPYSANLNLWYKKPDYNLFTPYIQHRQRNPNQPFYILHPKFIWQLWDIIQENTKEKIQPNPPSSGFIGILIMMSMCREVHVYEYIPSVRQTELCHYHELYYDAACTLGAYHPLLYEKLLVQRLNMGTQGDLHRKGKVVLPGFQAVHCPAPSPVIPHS
Protocol: Using each expression vector and lipofectamine (Invitrogen), transient expression was carried out in COS-7 cells (Kojima, N. et al. (1995) FEBS Lett. 360, 1-4). The proteins of the present invention secreted from the cells into which each expression vector had been introduced were named as PA-hST6Gal II (human) and PA-mST6Gal II (mouse). PA-hST6Gal II and PA-mST6Gal II were adsorbed to IgG-Sepharose (Amersham Pharmacia Biotech), and were then recovered from medium. Sialyltransferase activity was measured as follows according to the method of Lee et al. (Lee, Y.-C. et al. (1999) J Biol. Chem. 274, 11958-11967). A reaction mixture (10 μl) containing 50 mM MES buffer (pH 6.0), 1 mM MgCl2, 1 mM CaCl2, 0.5% Triton CF-54, 100 μM CMP-[^14C]-NeuAc, a substrate sugar chain (which was added at 0.5 mg/ml in the case of glycolipids, and at 1 mg/ml in the case of glycoproteins or oligosaccharides), and a PA-hST6Gal II or PA-mST6Gal II suspension, was incubated at 37° C. for 3 to 20 hours. Thereafter, in the case of glycolipids, the reaction product was purified with a C-18 column (Sep-Pak Vac 100 mg; Waters) and the purified product was used as a sample. In the case of oligosaccharides or glycoproteins, the reaction product was directly used as a sample. Thus, the obtained sample was subjected to analysis. In the case of oligosaccharides or glycolipids, the sample was spotted on a silica gel 60 HPTLC plate (Merck), and it was then developed with a developing solvent consisting of 1-propanol:ammonia water:water=6:1:2.5 (for oligosaccharides), or a developing solvent consisting of chloroform:methanol: 0.02% CaCl2=55:45:10 (for glycolipids). In the case of glycoproteins, analysis was carried out by SDS-polyacrylamide gel electrophoresis. The obtained radioactivities were visualized with a BAS2000 radio image analyzer (Fuji Film) and then quantified.

Molecule: Asialofetuin: asialo glycoprotein acceptor substrate purchased from Sigma
- Relative rate (%) Human ST8Sia VI [1]: 0%
- Relative rate (%) Human ST6Gal II [2]: 3.9%

Molecule: Asialo- α1-Acid glycoprotein: desialylated α1-acid glycoprotein prepared at 80° C. for 1 hour in 0.02 N HCl
- Relative rate (%) Human ST8Sia VI [1]: 0%
- Relative rate (%) Human ST6Gal II [2]: 1.2%

Molecule: Fetuin: glycoprotein acceptor substrate containing both O-glycans and N-glycans, purchased from Sigma
- Relative rate (%) Human ST8Sia VI [1]: 100%
- Relative rate (%) Human ST6Gal II [2]: 0%

Molecule: Galβ1,3GalNAcβ1,4(NeuAcα2,3)Galβ1,4Glcβ1-Cer [GM1a]
- Relative rate (%) Human ST6Gal II [2]: 0%

B2: Asialoovomucoid: desialylated ovomucoid prepared at 80° C. for 1 hour in 0.02 N HCl (protein, UniProt P01005 25-210, looked up)
Ovomucoid: AEVDCSRFPNATDKEGKDVLVCNKDLRPICGTDGVTYTNDCLLCAYSIEFGTNISKEHDGECKETVPMNCSSYANTTSEDGKVMVLCNRAFNPVCGTDGVTYDNECLLCAHKVEQGASVDKRHDGGCRKELAAVSVDCSEYPKPDCTAEDRPLCGSDNKTYGNKCNFCNAVVESNGTLTLSHFGKC
modifications: desialylated
notes: desialylated ovomucoid prepared at 80° C. for 1 hour in 0.02 N HCl
- Relative rate (%) Human ST8Sia VI [1]: 0%
- Relative rate (%) Human ST6Gal II [2]: 0%

The next lines start with the values.

- Relative rate (%) Human ST8Sia VI [1]: 0%
- Relative rate (%) Human ST6Gal II [2]: 1.2%
Molecule: α1-Acid glycoprotein: glycoprotein acceptor substrate purchased from Sigma

- Relative rate (%) Human ST6Gal II [2]: 0%
Molecule: Galβ1,4Glcβ1-Cer [Lactosylceramide]

- Relative rate (%) Human ST8Sia VI [1]: 1.6%
- Relative rate (%) Human ST6Gal II [2]: 0%
Molecule: NeuAcα2,3Galβ1,4Glcβ1-Cer [GM3]

- Relative rate (%) Human ST8Sia VI [1]: 12.3%
- Relative rate (%) Human ST6Gal II [2]: 0%
B1: Ovomucoid: glycoprotein acceptor substrate which contains only N-glycans (protein, UniProt P01005 25-210, looked up)
Ovomucoid: B2 Ovomucoid
